According to the supplement of paper PMC10567573:

B1: INTS4 (parent)
chain: TIIEPAGESDNPLRFTSGLVVALD

Variants of: B1
Test: protein stability index of a GFP-peptide fusion (GPS, HEK-293T) (PSI 1-6); higher = more stable
Conditions: c terminus: a fixed tail appended
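Note: lentivirally expressed fusions sorted by FACS into six bins by GFP to DsRed ratio, PSI derived from sequencing read proportions per bin multiplied by bin number.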

Protein stability index, by site and new letter:
S17: I 2.27; N 2.53; D 3.92; A 2.51; Q 3.06; P 2.99; R 2.05; L 3.12; F 2.08; V 1.73; K 2.65; G 2.9
V20: L 2.53; H 3.28; C 3.38; D 4.38; P 4.23; G 3.76; S 3.77; W 2.68; F 2.31; T 3.82; K 3.75; M 2.59
L23: D 4.53; Y 3.29; H 3.81; N 4.1; A 4.1; S 4.35; C 3.62; W 2.97; R 3.6; G 4.16; P 4.17; M 3.26; I 2.4; T 3.92; F 2.75
I3: D 4.07; Q 3.45; K 3.85; G 3.7; H 3.9; A 4.03; N 3.51; W 2.88; E 4.4; S 4.07; V 4.2; T 3.4; R 3.06; Y 3.29
E4: A 2.76; Q 2.84; F 1.81; K 2.19; T 2.34; L 2.33; D 3.09; W 1.56; R 2.94; P 3.15; N 2.09; V 1.98; C 2.05; M 2.1; G 2.25; S 2.89
P12: M 2.33; F 2.41; A 2.76; Y 1.96; S 3.13; D 3.4; W 2.14; C 2.52; K 2.61; I 2.27; V 2.53; H 2.61; L 2.1
D10: L 1.85; A 2.96; N 3.61; R 2.23; P 2.83; M 2.15; C 2.08; Y 1.89; G 2.56; Q 2.49; F 2.65; T 2.63; S 2.72
I2: R 3.67; M 3.38; A 3.71; C 2.84; Q 3.22; W 2.38; G 3.51; D 4.21; T 3.21; Y 2.32; H 3.18; F 3.8; E 3.86; N 3.9; V 3.15
R14: Q 3.26; S 3.63; M 2.27; T 2.96; I 2.46; K 2.77; W 2.03; Y 2.21; A 3.63; V 2.86; N 3.95; P 3.4; F 2.04; E 4.21; L 2.96
F15: I 3.72; G 4.03; W 2.2; H 4.37; E 4.63; C 3.87; N 4.36; P 3.9; K 3.54; Y 2.87; R 3.92; S 4.21; T 4.3
A6: D 3.7; P 2.99; T 2.61; Q 2.72; K 2.98; E 3.74; C 2.47; R 3.07; M 2.63; W 1.78; N 2.52; Y 2.19; I 2.73; L 2.2; S 2.54; V 2.62
V21: K 3.45; T 3.67; I 2.78; P 3.93; H 3.27; Y 3; F 2.37; E 4.5; W 2.16; M 2.84; C 3.48
S9: W 2.19; K 2.87; D 3.29; R 2.79; A 2.57; L 2.38; C 2.28; H 3.17; M 3.16; G 2.75; I 2.78; V 2.92
P5: I 1.5; Y 1.93; W 2.53; C 2.56; A 2.37; G 2.78; H 2.83; L 2.76; S 2.33; T 2.77; Q 2.49; N 2.91; R 2.51; F 1.53
N11: G 2.38; W 1.63; M 2.21; C 2.9; R 3.19; E 3.33; V 2.33; T 2.64; L 2.42; Y 2.25; K 2.86; I 2.42; Q 3
T16: P 3; Y 1.74; R 3.35; E 3.44; W 1.76; F 2.35; V 2.01; H 2.23; I 2.21; S 2.88; C 1.91
E8: R 3.15; D 2.88; W 1.5; I 2.02; S 3.08; A 2.23; F 2.19; P 2.15; Q 2.62; G 2.32; K 1.9
D24: F 4.12; H 1.93; T 2.2; N 2.12; R 1.9; A 2.75; M 1.98; V 2.33; E 2.38; S 2.06; C 1.35; K 2.19; Q 2.29; I 1.33; G 2.51
T1: P 3.06; G 3.82; M 1.68; F 1.83; D 3.21; N 3.36; Q 2.96; K 2.68; E 2.68; W 2.23; R 2.32; I 2.2; A 2.45; C 2.38; Y 2.08; L 1.83
G18: L 1.55; C 1.66; W 2.09; N 2.99; R 2.24; S 2.83; E 3.15; M 1.67; T 2.51; P 2.59; I 2.4; V 2.15; Q 2.7; D 3.67
A22: M 2.26; V 1.95; Q 2.65; T 2.78; G 2.85; Y 2.45; S 3.2; D 3.8; C 2.6; I 1.61; W 1.87; N 3.18; F 2.03; L 1.73; P 3.58
G7: L 2.67; P 3.04; S 2.9; Y 2.45; F 2.78; V 2.76; W 2.26; I 2.84; Q 3.33; M 2.36; K 2.94; T 3.08; A 3.83; H 2.73; R 3.54; E 3.82
L13: K 3.64; C 2.94; M 3.35; A 3.81; V 3.01; H 3.38; P 3.6; S 3.86; T 4.03; W 3.14; I 2.87; Q 3.5; D 4.41; G 3.14; F 2.33; Y 3.17; N 3.06; E 4.12
L19: G 4.16; T 4.16; V 3.33; R 4.01; D 4.96; W 1.98; A 4.01; Q 4.05; K 4.27; H 3.59; P 3.72; E 4.34; I 2.71; F 2.38
